Patent US6905846
Values belong to the molecule of their own block, whether it stands above or below them.

Key:
[1] = biological target: recombinant factor X (rFX), expressed in CHO cells from human factor X cDNA (human) (UniProt P00742); assay: cell-based or functional assay
[2] = biological target: T1, recombinant FX deletion mutant having the furin cleavage site Arg-Val-Thr-Arg/Ile (rFXΔ^RVTR/I)
T1 chain: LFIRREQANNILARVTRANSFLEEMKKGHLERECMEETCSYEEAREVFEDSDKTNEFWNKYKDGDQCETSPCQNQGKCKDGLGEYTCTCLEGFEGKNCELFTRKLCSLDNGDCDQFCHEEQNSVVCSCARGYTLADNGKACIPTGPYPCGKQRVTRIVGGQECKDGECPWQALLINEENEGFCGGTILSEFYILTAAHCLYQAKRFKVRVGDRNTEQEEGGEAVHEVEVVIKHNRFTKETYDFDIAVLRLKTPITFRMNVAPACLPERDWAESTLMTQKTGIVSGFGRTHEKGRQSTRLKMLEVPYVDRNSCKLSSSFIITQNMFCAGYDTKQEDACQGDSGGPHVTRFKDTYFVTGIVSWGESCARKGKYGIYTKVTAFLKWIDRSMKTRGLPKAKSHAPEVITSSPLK

functional portion of rFX (%), incubation 0 days [1]: 61%
functional portion of rFX (%), incubation 1 day [1]: 73%
functional portion of rFX (%), incubation 2 days [1]: 79%
functional portion of rFX (%), incubation 3 days [1]: 81%
functional portion of rFX (%), incubation 4 days [1]: 86%
Molecule: rfurin ÿTM6xHis (r-furin derivative, as CHO cell culture supernatant; patent application EP 0 775 750) (from UniProt P09958 108-707) (enzyme)

B1: r-furinÿCys-spacer-10xHis (purified r-furin derivative; patent application EP-0 775 750-A2) (protein)
chain: DVYQEPTDPKFPQQWYLSGVTQRDLNVKAAWAQGYTGHGIVVSILDDGIEKNHPDLAGNYDPGASFDVNDQDPDPQPRYTQMNDNRHGTRCAGEVAAVANNGVCGVGVAYNARIGGVRMLDGEVTDAVEARSLGLNPNHIHIYSASWGPEDDGKTVDGPARLAEEAFFRGVSQGRGGLGSIFVWASGNGGREHDSCNCDGYTNSIYTLSISSATQFGNVPWYSEACSSTLATTYSSGNQNEKQIVTTDLRQKCTESHTGTSASAPLAAGIIALTLEANKNLTWRDMQHLVVQTSKPAHLNANDWATNGVGRKVSHSYGYGLLDAGAMVALAQNWTTVAPQRKCIIDILTEPKDIGKRLEVRKTVTACLGEPNHITRLEHAQARLTLSYNRRGDLAIHLVSPMGTRSTLLAARPHDYSADGFNDWAFMTTHSWDEDPSGEWVLEIENTSEANNYGTLTKFTLVLYGTAPEG
processing/activation of rFXΔ^RVTR/I (Western blot; 6, 24, 48, 72 hours at 37° C.) [2]: In the presence of the r-furin derivative (FIG. 10A), a 35 kD protein band appears already after 6 hours of incubation (lane 5), which corresponds to the form of the FX heavy chain
